Measured values reported in patent publication US20200231681A1.
pKd: −log10 of the molar value.

Tests used:
[1] = target: c-Met receptor on human tumor cells (MKN45, NCI-H820, HCC827) (human) (UniProt P08581); test: cell-based or functional assay
[2] = target: cynomolgus monkey EGFR ECD (SiNo. Biological, 90285-008B) (cynomolgus monkey); test: SPR (BIAcore), antibody captured by anti-human IgG Fc, antigen as analyte, 1:1 Langmuir
[3] = target: c-Met receptor on human tumor cells (MKN45, NCI-H820, HCC827) (human) (UniProt P08581); test: flow cytometry on MKN45 cells, 100 nM control antibody, anti-human kappa LC-FITC (column of OA-5D5)
[4] = target: c-Met receptor on human tumor cells (MKN45, NCI-H820, HCC827) (human) (UniProt P08581); test: flow cytometry on MKN45 cells, 100 nM control antibody, anti-human kappa LC-FITC (column of hu8C4)
[5] = target: EGFR on HCC827 cells (EGFR E746-A750 deletion mutation) (human) (UniProt P00533); test: cell-based or functional assay

Sequence of c-Met receptor on human tumor cells (MKN45, NCI-H820, HCC827) (human) (P08581 25-1390): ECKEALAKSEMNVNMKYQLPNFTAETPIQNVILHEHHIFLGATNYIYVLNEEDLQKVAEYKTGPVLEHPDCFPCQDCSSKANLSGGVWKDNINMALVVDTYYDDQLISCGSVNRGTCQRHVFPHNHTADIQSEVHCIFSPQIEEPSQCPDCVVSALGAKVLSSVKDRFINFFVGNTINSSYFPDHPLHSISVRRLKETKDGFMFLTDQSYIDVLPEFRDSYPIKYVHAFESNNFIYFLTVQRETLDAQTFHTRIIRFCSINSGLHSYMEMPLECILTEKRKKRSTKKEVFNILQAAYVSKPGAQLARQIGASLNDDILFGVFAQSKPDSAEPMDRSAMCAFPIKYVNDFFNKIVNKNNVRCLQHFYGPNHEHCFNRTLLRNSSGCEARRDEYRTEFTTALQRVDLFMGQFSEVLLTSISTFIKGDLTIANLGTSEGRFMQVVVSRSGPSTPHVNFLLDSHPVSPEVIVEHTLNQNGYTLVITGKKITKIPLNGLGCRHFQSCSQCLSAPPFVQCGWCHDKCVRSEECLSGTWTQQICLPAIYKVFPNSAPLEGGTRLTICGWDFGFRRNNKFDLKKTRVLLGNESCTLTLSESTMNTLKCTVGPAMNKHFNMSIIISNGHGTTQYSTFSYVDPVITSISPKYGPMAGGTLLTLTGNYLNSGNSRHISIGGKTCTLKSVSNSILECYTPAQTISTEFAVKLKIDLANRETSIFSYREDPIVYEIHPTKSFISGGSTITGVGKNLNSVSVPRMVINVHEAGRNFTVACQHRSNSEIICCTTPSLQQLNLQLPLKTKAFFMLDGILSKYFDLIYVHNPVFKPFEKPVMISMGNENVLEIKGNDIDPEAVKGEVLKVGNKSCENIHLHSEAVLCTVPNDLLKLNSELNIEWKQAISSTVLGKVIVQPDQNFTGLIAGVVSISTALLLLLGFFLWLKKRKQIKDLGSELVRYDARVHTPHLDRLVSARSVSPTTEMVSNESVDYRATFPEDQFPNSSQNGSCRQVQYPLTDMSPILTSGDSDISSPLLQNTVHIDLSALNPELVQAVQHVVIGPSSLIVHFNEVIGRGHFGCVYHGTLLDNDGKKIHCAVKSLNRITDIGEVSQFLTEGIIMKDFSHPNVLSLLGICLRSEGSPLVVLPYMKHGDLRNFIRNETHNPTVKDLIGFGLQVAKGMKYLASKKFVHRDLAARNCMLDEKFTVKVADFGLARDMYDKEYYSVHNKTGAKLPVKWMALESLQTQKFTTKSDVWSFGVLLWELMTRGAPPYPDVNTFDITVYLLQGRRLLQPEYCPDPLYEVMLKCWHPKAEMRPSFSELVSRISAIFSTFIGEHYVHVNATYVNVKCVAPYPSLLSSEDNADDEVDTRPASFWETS

c-Met on the surface of HCC827 cells after 18 h with 100 nM antibody, Means (geo MFI); human IgG control 5653 [1]	decrease of c-Met on the surface of HCC827 cells [1]	Substance	further results
3270 geo MFI	40%	C-LA480 (LA480, Lilly; control c-Met antibody)	–
–	–	Vectibix (antibody)	pKd [2]: 9.68
–	–	human IgG antibody (negative control)	FITC MFI [IgG control] (FITC geo-mean (MFI)) [3]: 127; FITC MFI [IgG control] (FITC geo-mean (MFI)) [4]: 127
3660 geo MFI	40%	C-EM1 (EM1-MAb, Janssen; control c-Met/EGFR bispecific antibody)	EGFR on the surface of HCC827 cells after 18 h with 100 nM antibody, Means (geo MFI); human IgG control 11494 [5]: 11500 geo MFI
